Measured values as given in patent publication US6090381.

Columns and labels:
[1] = biological target: target antigen of the LL2 antibody (not given); assay: ELISA, calculated from ID50 values; coated reagent not named
[2] = biological target: target antigen of the LL2 antibody (not given); assay: competitive binding assay, F(ab')2; competitor and antigen not named; parameters: unit not given beside the values
[3] = biological target: target antigen of the LL2 antibody (not given); assay: cell surface binding assay, calculated from the ID50 values; cells not named
[4] = biological target: target antigen of the LL2 antibody (not given); assay: competitive binding assay, F(ab')2; from the ID50 against unmodified control F(ab')2

| Immunoreactivity (%), ELISA [1] [%] | ID50 [2] | Immunoreactivity (%), Cell Binding [3] [%] | Immunoreactivity, % of hLL2 [4] [%] | Substance |
| --- | --- | --- | --- | --- |
| 100 | 0.384 | 100 | 100 | F(ab')2 fragment of hLL2 (antibody) |
| 42.2 | – | 41.9 | – | dextran-doxorubicin-conjugated F(ab')2 fragment of hLL2 (antibody) |
